Experimental data taken from patent US7125697B2, “Luciferase and photoprotein” (Chisso Corporation, priority 2000, dated 2006).

What was measured:
[1] = Luminescence activity after expression in COS7 cells, bisdeoxy-coelenterazine substrate; format: cell-based
Method: (§1) Expression of the proteins as a component of Oplophorus luciferase in mammalian cultured cells COS7 was conducted using the expression plasmids pKAZ-CMV, PSKAZ-CMV, pOL-CMV and pSOL-CMV constructed in Example 10 and pRL-CMV expressing Renilla luciferase as a control for the transfection of the host. COS7 cells (2×10^5 cells) were grown in a 35 mm well-plate containing 3 ml of Dulbecco's modified Eagle's media (Gibco BRL, Rockville, Md., USA) supplemented with 10% (v/v) heat-inactivated fetal calf serum (Gibco BRL), 100 U/ml penicillin and 100 μg/ml of streptomycin. The cells were cultured at 37° C. for 24 hours and then transfected with 2 μg of each plasmid DNA using FuGENE6 transfection reagent (Rosche Diagnostics, Mannheim, Germany). After further incubation for 36 hours, cells were separated from cultured media by centrifugation. The separated cells were suspended in 0.5 ml of phosphate-buffered saline, and subjected to repeated freeze-thawing at a temperature between 37° C. and −80° C. to obtain a cell extract. One μg of coelenterazine or bisdeoxy-coelenterazine was added as a substrate into the cell extract and the intensity of the luminescence was measured by the luminometer.

[2] = Luminescence activity after expression in COS7 cells, coelenterazine substrate; format: cell-based; settings: for Luminescence activity in Cell extracts, Coelenterazine: COS7 cell extracts; for Luminescence activity in Medium, Coelenterazine: COS7 culture medium
Method: as §1

[3] = Luminescence activity of proteins expressed in cell-free in vitro transcription-translation system; format: biochemical; settings: no microsomal membrane (−); 1 μg coelenterazine
Text: Using the expression vector, pKAZ-CMV, PSKAZ-CMV, pOL-CMV or pSOL-CMV prepared in Example 10, the 19 kDa or 35 kDa protein constituting Oplophorus luciferase was expressed by means of the in vitro transcription-translation system. As a positive control, pRL-CMV expressing Renilla luciferase was used. The in vitro transcription-translation system is capable of producing a protein from a recombinant plasmid or mRNA prepared from the plasmid and is particularly useful for the luminescence system with high sensitivity for the detection. In this Example, a commercially available in vitro translation kit (TNT in vitro transcription/translation kit; Promega) was used. A fraction of microsomal membranes capable of cleaving the signal sequence for secretion was also added in order to confirm the existence of the signal sequence in the expressed proteins. The in vitro translation mixture (25 μl in total) containing 0.5 μg of the plasmid DNA, 20 μl of rabbit reticulocyte lysate, 1 μl of 1 mM methionine and 2.5 μl of microsomal membranes was incubated at 30° C. for 90 min and then 1 μl of the mixture was subjected to the measurement of its luminescent activity. […] The reaction was started by the addition of a test sample and the intensity of the luminescence was measured by the luminometer.

[4] = Preservation test of renatured 19 kDa protein, luminescence activity; format: biochemical; settings: for luminescence activity on preservation: 4° C.; for Luminescence activity after preservation: 4 ° C.
Method: Subsequently, the 19 kDa protein renatured was subjected to the preservation test, which comprises preserving the protein in the absence or presence of 50% (v/w) or 70% (v/w) glycerol at 4° C. for 30 days and then measuring its luminescence activity as mentioned above.

[5] = Renaturation of urea-solubilized 19 kDa protein with glycerol, luminescence activity; format: biochemical; settings: for Luminescence Activity: 25° C., 30 minutes; for Luminescence Activity, relative value in parentheses: relative to 0 % glycerol
Method: E. coli cells constructed in Example 12 which contain the expression vector pHis-KAZ and express the 19 kDa protein were disrupted by the sonication in 20 ml of a buffer comprising 20 mM Tris-HCl, pH 7.5. After centrifugation (12,000×g, 20 minutes), the precipitated fraction was subjected to the solubilization by treating with 20 ml of 20, mM Tris-HCl, pH 7.5 containing 8 M urea and then centrifuged (12,000×g, 20 minutes) to afford a soluble fraction. […] Subsequently, the soluble fraction was subjected to the nickel-chelated column chromatography and the desired protein was eluted by the linear gradient of imidazole from 0 to 0.3 M to give approximately 95% purity.
Consequently, the protein was subjected to the renaturation step by treating with glycerol (the final concentration: from 0 to 90% (v/w)) as a solvent at 25° C. for 30 minutes to afford the 19 kDa protein renatured. As described above, the intensity of the luminescence was measured by the luminometer.

B1: 35 kDa Protein: 35 kDa protein component of Oplophorus luciferase, positions 40–359 of SEQ ID NO: 4, without signal sequence (protein, listed as Oplophorus gracilorostris)
chain: AVACPAAEDIAPCTCKVGEGDVMDMDCSKVTSDAELASIFSKTFPSNTFRELFIEFNREITTLTADSLGAATFTKIAITSCTQLKTIEENAFMASAATLEKLVLLKNDLSSFPFEEMSQYTKLNWLELSVNSITGWPALSSDTLANLILFRNPIGNIPVDAFQTLPNIEQFNCFDCSITEVEAGTFTRSPKLQKLVLGYNGLTSLPVGAIKLHGHGPTTSNLGITNNQIISFPEGAVEGIQGILGIDFNRVTSLSEEVWRPILENLFQFSLLNNPLACVCDVMWLIDSPELLAKIKGNPRCAGGKRLKNLDPAVFHAMCQ
Luminescence activity in Cell extracts, Bisdeoxy-coelenterazine [1]: <0.001 rlu | Luminescence activity in Cell extracts, Coelenterazine [2]: <0.001 rlu | Luminescence activity in Medium, Coelenterazine [2]: 2.45 rlu | Luminescence Activity [3]: <0.001 rlu

B2: 19 kDa Protein: 19 kDa photoprotein component of Oplophorus luciferase, positions 28–196 of SEQ ID NO: 2, without signal sequence (protein, listed as Oplophorus gracilorostris)
chain: FTLADFVGDWQQTAGYNQDQVLEQGGLSSLFQALGVSVTPIQKVVLSGENGLKADIHVIIPYEGLSGFQMGLIEMIFKVVYPVDDHHFKIILHYGTLVIDGVTPNMIDYFGRPYPGIAVFDGKQITVTGTLWNGNKIYDERLINPDGSLLFRVTINGVTGWRLCENILA
Luminescence activity in Cell extracts, Bisdeoxy-coelenterazine [1]: 2,124.0 rlu | Luminescence activity in Cell extracts, Coelenterazine [2]: 2,273.0 rlu | luminescent intensity compared with pRL-CMV ([2]; COS7 cells): equivalent to that from pRL-CMV | Luminescence activity in Medium, Coelenterazine [2]: 3.62 rlu | Luminescence Activity [3]: 1242.0 rlu | luminescence activity on preservation ([4]; absence of glycerol, 30 days): significantly decreased | Luminescence activity after preservation ([4]; glycerol 0 % v/w, 0 day): 102 rlu | Luminescence activity after preservation ([4]; glycerol 0 % v/w, 30 days): 23 rlu | Luminescence activity after preservation ([4]; glycerol 50 % v/w, 0 day): 3,840 rlu | Luminescence activity after preservation ([4]; glycerol 50 % v/w, 30 days): 3,734 rlu | luminescence activity on preservation ([4]; presence of glycerol (50% or 70% v/w), 30 days): maintained without decreasing | luminescence activity before renaturation ([5]; after 8 M urea solubilization and nickel-chelated column, before glycerol): no luminescence activity | Luminescence Activity ([5]; glycerol 0 % v/w): 83 rlu | Luminescence Activity, relative value in parentheses ([5]; glycerol 0 % v/w): (1.0) | Luminescence Activity ([5]; glycerol 10 % v/w): 147 rlu | Luminescence Activity, relative value in parentheses ([5]; glycerol 10 % v/w): (1.8) | Luminescence Activity ([5]; glycerol 20 % v/w): 375 rlu | Luminescence Activity, relative value in parentheses ([5]; glycerol 20 % v/w): (4.5) | Luminescence Activity ([5]; glycerol 30 % v/w): 1,258 rlu | Luminescence Activity, relative value in parentheses ([5]; glycerol 30 % v/w): (15.2) | Luminescence Activity ([5]; glycerol 40 % v/w): 1,818 rlu | Luminescence Activity, relative value in parentheses ([5]; glycerol 40 % v/w): (24.9) | Luminescence Activity ([5]; glycerol 50 % v/w): 3,822 rlu | Luminescence Activity, relative value in parentheses ([5]; glycerol 50 % v/w): (46.0) | Luminescence Activity ([5]; glycerol 60 % v/w): 4,860 rlu | Luminescence Activity, relative value in parentheses ([5]; glycerol 60 % v/w): (58.6) | Luminescence Activity ([5]; glycerol 70 % v/w): 4,462 rlu | Luminescence Activity, relative value in parentheses ([5]; glycerol 70 % v/w): (53.8) | Luminescence Activity ([5]; glycerol 80 % v/w): 2,842 rlu | Luminescence Activity, relative value in parentheses ([5]; glycerol 80 % v/w): (34.2) | Luminescence Activity ([5]; glycerol 90 % v/w): 2,536 rlu | Luminescence Activity, relative value in parentheses ([5]; glycerol 90 % v/w): (30.6)
